From article PMC10658506 (2023)
Changes are numbered by the printed parent chain. Values belong to the binder of their own block, whether it stands above or below them.

Target: T1, soluble human IL-11 receptor extracellular domain, his-tagged (human, UniProt Q14626 24-370)
T1 chain: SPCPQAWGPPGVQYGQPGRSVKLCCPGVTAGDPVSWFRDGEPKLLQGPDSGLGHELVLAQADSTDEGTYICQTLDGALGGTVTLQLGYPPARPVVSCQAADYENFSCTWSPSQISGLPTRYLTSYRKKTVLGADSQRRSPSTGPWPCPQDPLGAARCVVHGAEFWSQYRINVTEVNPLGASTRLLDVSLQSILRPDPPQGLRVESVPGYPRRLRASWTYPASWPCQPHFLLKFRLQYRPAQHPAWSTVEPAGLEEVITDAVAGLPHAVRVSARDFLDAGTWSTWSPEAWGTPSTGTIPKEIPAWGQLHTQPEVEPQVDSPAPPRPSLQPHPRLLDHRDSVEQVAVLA
Experiment: FACS

- Kd: 0.22 nM
B1: yeast-displayed IL-11 IPR (ligand)
chain: PGPPPGPPRVSPDPRAELDSIVLLTRSLLADTRQLAAQLRDKFPADGDHNLDSLPTPAMSARALGALQLPGVLTRLRADLLSYLRHVQWLRRAGGSSLKTLEPELGTLQARLDRLLRRLQLLMSRLALPQPPPDPPAPPLAPPSSAWGGIRAAHAILGGLHLTLDWAVRGLLLLKTRL

- Kd: 8.2 nM
B3: yeast-displayed wild-type human IL-11 (ligand)
chain: B1 chain with I21T, P57L, R62G

More lines, now with the values behind:

B2: yeast-displayed IL-11 GIPRD (ligand)
chain: B1 chain with D19G, G71D
- Kd: 0.19 nM

B4: yeast-displayed IL-11 GIPRDM (ligand)
chain: B1 chain with D19G, G71D, V72M
- Kd: 0.29 nM
